Measured values: US20090068164 (published 2009)

B1: mCpG-Zif268 (dsDNA)
DNA 1: GCGTACGTAGGACGATACGCCCACGCCACCG
DNA 2: CGGTGGCGTGGGCGTATCGTCCTACGTACGC
modifications: 5mC at the CpG on both strands (GTAmCGTA)
B2: Zif-0-PE1A (structured_DNA)
DNA: GGCGTTATTTATCGCCCACGCGGGTTTTCCCGCGTGGGCGATAAATAACGCC

Assays:
[1] = molecular target: NGFP-Zif268 + CGFP-MBD2 (human MBD2 residues 147-215; mCpG-SEER pair) (artificial, UniProt P08046;Q9UBB5 P08046:333-419,Q9UBB5:147-215); assay: split GFP reassembly; used as reference (relative fluorescence 1) for specificity set; Zn buffer, 4 C
[2] = molecular target: LacA-Zif268 + PE1A-LacB (split beta-lactamase SEER pair) (artificial, UniProt O73693; SEQ:189-286,SEQ:1-88); assay: split beta-lactamase reassembly on cognate target

Binder	binding result [1]	binding result [2]
B1	binds	
B2		binds
